The results in this text go back to paper PMC3097224, “Mth10b, a Unique Member of the Sac10b Family, Does Not Bind Nucleic Acid” (PLoS ONE, 2011).

The stoichiometry N is the number of molecules, sites or subunits per partner or assembly.

This data set deals with the molecule itself. Description: AUC; sedimentation velocity, 60000 rpm, 20°C, buffer F (50 mM Na2HPO4-NaH2PO4/pH 7.5), protein at 0.6 and 1.0 mg/mL, absorption at 238 nm.

B1: Mth10b from Methanobacterium thermoautotrophicum ΔH (natural protein, UniProt O27527 2-91, looked up)
chain: SEENVVYIGNKPVMNYVLAVVTQMNGGTSEVILKARGIAISRAVDVAEIVRNRFIPDIQIENIDICTEEIIGNEGTATNVSAIEIQLRKD
notes: Mth10b, Sac10b family protein of Methanobacterium thermoautotrophicum ΔH, gene MTH1483; whole gene cloned with primers from the start codon to the stop codon; No tag (pET11a, NdeI/BamHI); also called MTH1483; source: Escherichia coli BL21 (DE3), pET11a, purified (Q Sepharose Fast Flow, Phenyl Sepharose High Performance, Resource-S)
In the case of B1, the “stoichiometry N” value was found to be 2.
